Columns and labels:
wt-CFTR channel = molecular target: T1, wt-CFTR channel (Homo sapiens, UniProt P13569); test: Single channel recording of wt-CFTR reconstituted in planar lipid bilayer; assay type: biochemical
T1 construct: made in house; host or cells: 293-EBNA HEK cells (Invitrogen), transient transfection with pCEP4(wt); microsomal membrane vesicles
Description: (§1) To test whether the NEG2 region is responsible for both stimulatory and inhibitory interactions between the R domain and other domains, synthetic NEG2, a 22 amino acid peptide, was added to the cis-intracellular side of single CFTR channels captured in the planar lipid bilayer (FIG. 3). […] After peptide addition, there are periods of intense stimulation that last 4 to 8 minutes. These stimulatory periods are followed by either a return to the basal level of activity before peptide addition, or by an almost complete inhibition of the channel, where only a flickery 3 pS conductance is observed.
In order to understand the mechanism responsible for the increase in open probability, the gating kinetics of wt-CFTR without peptide and during stimulation by synthetic NEG2 were analyzed. […] Thus, the increase in the open probability is not due to a change in the closing rate of the channel. However, the closed time distribution for the stimulated channel is clearly shifted to the left compared to the control channel (FIG. 4B). There are three components to the closed state, a fast (τc1), an intermediate (τc2) and a long (τc3) closed component. The fast closed component is probably due to closings within a burst (Carson et al., 1995). Therefore, to identify better the closed times between bursts, a delimiter of τc=40 ms was set at the nadir between the fast and intermediate closed times (illustrated by the arrow in FIG. 4B) to generate the closed-burst duration histograms. […] Thus, the interaction of NEG2 with CFTR increased the intermediate-opening rate of the channel. This increase in opening rate is similar to that observed when the phosphorylated R domain protein (amino acids 645-834) was added to CFTR-ΔR/S660A in excised, inside-out patches (Winter and Welsh, 1997). Additionally, modification of C832, which resides within NEG2, by N-ethylrnaleimide (NEM) results in irreversible stimulation of PKA-phosphorylated CFTR chloride channel activity (Cotten and Welsh, 1997), further emphasizing the importance of NEG2 in CFTR regulation.
A human embryonic kidney cell line (293-EBNA HEK; Invitrogen) was used for transfection and expression of the CFTR proteins (Ma et al., 1997, Ma et al., 1996, Xie et al., 1995). The HEK-293 cell line contains a pCMV-EBNA vector, which constitutively expresses the Epstein-Barr virus nuclear antigen-1 (EBNA-1) gene product and increases the transfection efficiency of Epstein-Barr virus-based vectors. The cells were maintained in Dulbecco's Modified Eagle Medium with 10% FBS and 1% L-glutamine. Geneticin (G418, 250 (g/ml) was added to the cell culture medium to maintain selection of the cells containing the pCMV-EBNA vector. Lipofectamine reagent (Life Technologies, Inc) in Optimem media (serum-free) was used to transfect the HEK-293 cells with pCEP4(wt), pCEP4(ΔNEG1), or pCEP4(ΔNEG2). After 5 hours, serum was added to the media (10% final serum concentration). Twenty-four hours after transfection, the transfection media was replaced with fresh media. The cells were harvested two days after transfection and microsomal membrane vesicles were prepared for single channel measurements in the lipid bilayer reconstitution system.
HEK-293 cells transfected with pCEP4(CFTR) were harvested and homogenized using a combination of hypotonic lysis and Dounce homogenization in the presence of protease inhibitors (Ma et al., 1997, Ma et al., 1996, Xie et al., 1995). Microsomes were collected by centrifugation of postnuclear supernatant (4500×g, 15 min) at 100,000×g for 20 min and resuspended in a buffer containing 250 mM sucrose, 10 mM HEPES, pH 7.2. The membrane vesicles were stored at −75° C. until use.
The 22 amino acid peptide corresponding to NEG2 was custom made by Quality Controlled Biochemicals, Inc. The peptide was resuspended in water to a concentration of 1 mg/ml and pH was adjusted to a physiological range (7.2-7.4) using KOH and HCl. […]

ΔNEG2-CFTR channel = molecular target: T2, ΔNEG2-CFTR channel (Homo sapiens, UniProt P13569, DEL817-838); test: Single channel recording of ΔNEG2-CFTR reconstituted in planar lipid bilayer; assay type: biochemical; settings: 0.44 μM NEG2 peptide, −80 mV, 2 mM ATP, no PKA
T2 construct: made in house; host or cells: 293-EBNA HEK cells (Invitrogen), transient transfection with pCEP4(ΔNEG2); microsomal membrane vesicles
T2 sequence (P13569 with tags, fused parts or gaps DEL817-838): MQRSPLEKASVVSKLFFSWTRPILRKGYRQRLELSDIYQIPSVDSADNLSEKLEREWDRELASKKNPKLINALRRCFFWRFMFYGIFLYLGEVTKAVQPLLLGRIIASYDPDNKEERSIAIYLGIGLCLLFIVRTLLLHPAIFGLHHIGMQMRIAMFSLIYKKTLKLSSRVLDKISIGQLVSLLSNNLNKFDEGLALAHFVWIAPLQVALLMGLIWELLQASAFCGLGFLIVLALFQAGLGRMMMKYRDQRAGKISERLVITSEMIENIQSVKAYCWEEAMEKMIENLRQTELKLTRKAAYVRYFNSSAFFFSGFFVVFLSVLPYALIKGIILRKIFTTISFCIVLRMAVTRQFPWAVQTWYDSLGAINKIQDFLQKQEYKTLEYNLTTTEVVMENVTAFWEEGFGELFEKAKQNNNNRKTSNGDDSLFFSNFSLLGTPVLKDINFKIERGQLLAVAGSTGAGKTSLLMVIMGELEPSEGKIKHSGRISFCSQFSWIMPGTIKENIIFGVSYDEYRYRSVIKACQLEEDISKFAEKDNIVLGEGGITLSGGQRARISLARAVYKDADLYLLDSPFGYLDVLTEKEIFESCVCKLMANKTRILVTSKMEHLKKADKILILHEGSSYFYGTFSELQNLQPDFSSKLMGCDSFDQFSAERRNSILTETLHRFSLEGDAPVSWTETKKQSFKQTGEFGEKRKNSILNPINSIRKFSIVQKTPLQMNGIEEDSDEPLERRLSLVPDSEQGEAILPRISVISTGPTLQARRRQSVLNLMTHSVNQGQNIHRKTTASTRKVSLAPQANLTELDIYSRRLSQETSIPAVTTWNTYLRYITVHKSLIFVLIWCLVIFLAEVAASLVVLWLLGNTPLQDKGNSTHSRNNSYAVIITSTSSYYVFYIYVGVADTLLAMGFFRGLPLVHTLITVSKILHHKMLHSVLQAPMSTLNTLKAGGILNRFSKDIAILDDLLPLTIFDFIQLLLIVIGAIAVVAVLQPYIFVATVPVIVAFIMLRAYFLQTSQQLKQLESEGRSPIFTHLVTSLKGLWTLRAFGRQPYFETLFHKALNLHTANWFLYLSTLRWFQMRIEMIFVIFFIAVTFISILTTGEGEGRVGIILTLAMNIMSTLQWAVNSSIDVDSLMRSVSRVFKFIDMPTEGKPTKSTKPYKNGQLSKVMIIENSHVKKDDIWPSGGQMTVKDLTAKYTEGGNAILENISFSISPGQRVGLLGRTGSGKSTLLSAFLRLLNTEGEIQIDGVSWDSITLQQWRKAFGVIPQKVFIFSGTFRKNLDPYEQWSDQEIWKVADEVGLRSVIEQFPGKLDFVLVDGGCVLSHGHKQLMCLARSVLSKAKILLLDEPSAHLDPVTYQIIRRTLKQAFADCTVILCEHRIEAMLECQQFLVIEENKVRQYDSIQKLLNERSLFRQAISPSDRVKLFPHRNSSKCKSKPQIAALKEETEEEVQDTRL
Text: Single channel measurements indicate that the ΔNEG1-CFTR channel is similar to wt-CFTR in its PKA dependence. No chloride channels are observed in the absence of PKA (FIG. 2A) and the open probability in the presence of PKA and ATP is similar to wt-CFTR. In contrast, the ΔNEG2-CFTR channel opens without PKA (FIG. 2A). The constitutive activity of the ΔNEG2-CFTR channel is unlikely to be due to the endogenous phosphorylation of the ΔNEG2-CFTR protein, since protein phosphatase 2A, which decreases activity of the wt-CFTR opened by PKA and ATP (Ma et al., 1997), has no effect on the ΔNEG2-CFTR channel (n=4).
as §1, with “observed. […]” for “observed.”

[1] = peptide-stimulated, 4.4 μM NEG2 peptide, −80 mV

T1 sequence (P13569 whole entry): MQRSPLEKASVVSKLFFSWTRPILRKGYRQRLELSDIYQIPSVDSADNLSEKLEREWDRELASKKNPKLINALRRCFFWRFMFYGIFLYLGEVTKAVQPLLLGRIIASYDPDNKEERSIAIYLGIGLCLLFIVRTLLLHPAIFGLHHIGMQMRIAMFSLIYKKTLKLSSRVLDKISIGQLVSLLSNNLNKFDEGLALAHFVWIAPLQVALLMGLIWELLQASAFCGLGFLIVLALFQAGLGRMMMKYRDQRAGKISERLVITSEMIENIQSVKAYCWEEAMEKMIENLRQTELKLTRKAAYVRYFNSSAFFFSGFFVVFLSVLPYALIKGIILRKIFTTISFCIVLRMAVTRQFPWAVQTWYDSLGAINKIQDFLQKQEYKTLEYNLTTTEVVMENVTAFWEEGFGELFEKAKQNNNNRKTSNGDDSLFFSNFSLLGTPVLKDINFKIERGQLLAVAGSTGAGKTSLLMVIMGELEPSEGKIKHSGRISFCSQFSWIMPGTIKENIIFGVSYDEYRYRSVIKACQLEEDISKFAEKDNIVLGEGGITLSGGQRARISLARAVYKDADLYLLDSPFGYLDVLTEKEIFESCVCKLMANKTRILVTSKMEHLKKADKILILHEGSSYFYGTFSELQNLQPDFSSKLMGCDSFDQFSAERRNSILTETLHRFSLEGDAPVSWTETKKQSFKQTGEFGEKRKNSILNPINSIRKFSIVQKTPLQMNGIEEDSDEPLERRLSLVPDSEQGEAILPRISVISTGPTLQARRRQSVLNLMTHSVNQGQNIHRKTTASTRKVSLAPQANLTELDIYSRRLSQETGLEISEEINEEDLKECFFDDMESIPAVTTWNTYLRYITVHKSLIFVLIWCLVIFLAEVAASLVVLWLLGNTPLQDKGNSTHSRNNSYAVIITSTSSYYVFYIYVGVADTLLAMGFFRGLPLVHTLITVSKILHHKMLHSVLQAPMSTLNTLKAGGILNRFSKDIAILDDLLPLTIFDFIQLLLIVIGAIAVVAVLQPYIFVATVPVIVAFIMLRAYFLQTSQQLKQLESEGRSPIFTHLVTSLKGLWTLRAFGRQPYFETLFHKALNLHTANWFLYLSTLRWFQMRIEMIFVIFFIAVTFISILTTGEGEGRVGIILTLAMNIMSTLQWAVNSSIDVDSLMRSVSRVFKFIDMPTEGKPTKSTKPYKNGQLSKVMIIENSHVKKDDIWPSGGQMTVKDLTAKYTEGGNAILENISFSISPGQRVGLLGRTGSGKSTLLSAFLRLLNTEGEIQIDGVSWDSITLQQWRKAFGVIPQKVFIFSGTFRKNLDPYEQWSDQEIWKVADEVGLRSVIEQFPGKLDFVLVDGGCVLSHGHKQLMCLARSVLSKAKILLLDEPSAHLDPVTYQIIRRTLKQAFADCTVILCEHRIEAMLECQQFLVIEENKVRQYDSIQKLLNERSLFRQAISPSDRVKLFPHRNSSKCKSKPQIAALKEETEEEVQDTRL

NEG2 peptide: Synthetic 22 amino acid peptide corresponding to NEG2, amino acids 817-838 of the CFTR R domain (GLEISEEINEEDLKECFFDDME; listed as Homo sapiens)
change of open probability during stimulation (wt-CFTR channel; peptide added to cis-intracellular side, 2 mM ATP, 50 units PKA/ml): more than doubles | P2, probability of the intermediate closed component (wt-CFTR channel; [1]): 0.957 | P3, probability of the long closed component (wt-CFTR channel; [1]): 0.043 | intermediate closed time τc2 (wt-CFTR channel; peptide-stimulated, 4.4 μM NEG2 peptide, −80 mV, closed-burst histogram, delimiter 40 ms): 105 ms | concentration at which stimulatory response was observed (wt-CFTR channel; stimulation in 6 of 7 experiments, cis-intracellular addition): ≥ 0.44 µM | concentration at which profound inhibition was observed (wt-CFTR channel; three channels, cis-intracellular addition): ≥ 4.4 µM | effect on ΔNEG2-CFTR channel activity (ΔNEG2-CFTR channel): stimulation is observed

Reference: patent US6770739B1, “Enhancers of CFTR chloride channel function” (Case Western Reserve University, priority 1999, dated 2004)
